Results: patent US20100317583A1, “TREATMENT OF MELANOMA WITH ALPHA THYMOSIN PEPTIDES IN COMBINATION WITH AN ANTINEOPLASTIC HEAT SHOCK APOPTOSIS ACTIVATOR (HSAA)” (SciClone Pharmaceuticals, Inc., priority 2007, published 2010)
Like-named read-outs stand apart in the source and are kept apart here. No end group written: not given here.

Assay type: in vivo
Settings: for Body weight (Mean ± SD) / PI (BW), inhibition of body weight vs vehicle: low-dose arms: TA-1 6 mg/kg s.c. daily, Pac 10 + Ele 10 mg/kg co-i.v. Days 1, 7, 13
Method: In this study, the anti-tumor effect of the combined treatment of thymosin alpha-1 (TA-1), Paclitaxel (Pac) and Elesclomol (Ele) was evaluated in C57BL/6 mice bearing B16 melanoma cells. The toxic effects of the dosing regimens were also monitored. A total of 60 mice were implanted subcutaneously with murine B16 cells, followed by treatment with TA-1 or Pac/Ele alone or in combination for 14 consecutive days. TA-1 was given daily via s.c., while Pac and Ele were co-i.v. administered on Day 1, 7 and 13. In total, 6 groups were used: Group 1: vehicle; Group 2: TA-1 6 mg/kg; Group 3: Pac 10 mg/kg+Ele 10 mg/kg; Group 4: Pac 30 mg/kg+Ele 30 mg/kg; Group 5: TA-1 6 mg/kg+Pac 10 mg/kg+Ele 10 mg/kg; and Group 6: TA-1 6 mg/kg+Pac 30 mg/kg+Ele 30 mg/kg. Tumor volume and body weight were measured every three days, and tumor weights were measured on Day 17 at the end of the study.
On Day 1, the animals were randomly assigned into different weight-matched groups, and dosing was started using the regimen according to Table 2. Briefly, TA-1 was administered once daily via subcutaneous (s.c.) injection for 14 consecutive days at a site different from that of tumor cell implantation, while Pac and Ele was administered on Days 1, 7, and 13 via an intravenous (i.v.) injection.
From Day 1 to Day 15, mortality and moribundity were checked twice daily, the body weights were recorded once every 3 days, and tumors were measured using a caliper once every 3 days. At the end of the study (Day 17), the animals were euthanized by CO2 asphyxiation, and the tumors were excised and weighed.
Toxicity of all treatment regimens was evaluated with the body weights of the study animals along with the drug-induced animal deaths. The inhibition of body weight was calculated using Excel according to the equation below:
PIBW(%)=100×(BW vehicle−BW drug treated)/BW vehicle
Inter-group comparison was performed in terms of tumor volume, tumor weight and body weight, using a student's t test. P values of less than 0.05 were considered to be statistically significant.

For “thymosin alpha 1 (SDAAVDTSSEITTKDLKEKKEVVEEAEN; ends and bridges not checked; UniProt P06454 2-29, looked up) [TA-1, 28 amino acid peptide with a molecular weight of 3108; immunomodulator]”, the Body weights (Day 0, animal F1) was 21.5 g, the Body weights (Day 0, animal F2) was 20.8 g and the Body weights (Day 0, animal F3) was 19.3 g. It also gave a Body weights (Day 0, animal F4) of 20.0 g, a Body weights (Day 0, animal F5) of 19.9 g and a Body weights (Day 0, animal M1) of 21.8 g. The Body weights (Day 0, animal M2) was 21.5 g, the Body weights (Day 0, animal M3) was 22.9 g and the Body weights (Day 0, animal M4) was 20.7 g. The Body weights (Day 0, animal M5) was 21.4 g, the Body weights (Day 3, animal F2) was 19.0 g and the Body weights (Day 3, animal F3) was 20.2 g. For the same substance, the Body weights (Day 3, animal F4) was 19.8 g, the Body weights (Day 3, animal F5) was 19.1 g and the Body weights (Day 3, animal M1) was 21.1 g. The Body weights (Day 3, animal M2) was 17.8 g, the Body weights (Day 3, animal M3) was 19.7 g and the Body weights (Day 3, animal M4) was 20.4 g. The Body weights (Day 3, animal M5) was 19.8 g, the “Body weight (Mean ± SD)” value (Day 3) was 19.44 ± 1.12 g and the “PI (BW), inhibition of body weight vs vehicle” value (Day 3) was 1.17%. For the same substance, the Body weights (Day 6, animal F2) was 21.2 g, the Body weights (Day 6, animal F3) was 21.2 g and the Body weights (Day 6, animal F4) was 20.7 g. The Body weights (Day 6, animal F5) was 21.5 g, the Body weights (Day 6, animal M1) was 22.8 g and the Body weights (Day 6, animal M2) was 22.3 g. For the same substance, the Body weights (Day 6, animal M3) was 22.7 g, the Body weights (Day 6, animal M4) was 21.1 g and the Body weights (Day 6, animal M5) was 22.2 g. For the same substance, the “Body weight (Mean ± SD)” value (Day 6) was 21.63 ± 0.81 g, the “PI (BW), inhibition of body weight vs vehicle” value (Day 6) was −0.42% and the Body weights (Day 9, animal F1) was 20.4 g. The Body weights (Day 9, animal F2) was 20.7 g, the Body weights (Day 9, animal F3) was 20.4 g and the Body weights (Day 9, animal F4) was 20.2 g. It also gave a Body weights (Day 9, animal F5) of 20.0 g, a Body weights (Day 9, animal M1) of 22.5 g and a Body weights (Day 9, animal M2) of 21.2 g. The Body weights (Day 9, animal M3) was 22.5 g, the Body weights (Day 9, animal M4) was 20.9 g and the Body weights (Day 9, animal M5) was 21.7 g. The “Body weight (Mean ± SD)” value (Day 9) was 21.05 ± 0.91 g, the “PI (BW), inhibition of body weight vs vehicle” value (Day 9) was 1.13% and the Body weights (Day 12, animal F1) was 21.5 g. The Body weights (Day 12, animal F2) was 21.3 g, the Body weights (Day 12, animal F3) was 20.2 g and the Body weights (Day 12, animal F4) was 20.1 g. It also gave a Body weights (Day 12, animal F5) of 20.1 g, a Body weights (Day 12, animal M1) of 22.4 g and a Body weights (Day 12, animal M2) of 21.5 g. For the same substance, the Body weights (Day 12, animal M3) was 22.4 g, the Body weights (Day 12, animal M4) was 21.0 g and the Body weights (Day 12, animal M5) was 22.2 g. For the same substance, the “Body weight (Mean ± SD)” value (Day 12) was 21.27 ± 0.91 g, the “PI (BW), inhibition of body weight vs vehicle” value (Day 12) was 2.03% and the Body weights (Day 15, animal F1) was 21.7 g. It also gave a Body weights (Day 15, animal F2) of 21.5 g, a Body weights (Day 15, animal F3) of 21.2 g and a Body weights (Day 15, animal F4) of 21.2 g. It also gave a Body weights (Day 15, animal F5) of 21.1 g, a Body weights (Day 15, animal M1) of 22.5 g and a Body weights (Day 15, animal M2) of 22.5 g. It also gave a Body weights (Day 15, animal M3) of 23.4 g, a Body weights (Day 15, animal M4) of 22.0 g and a Body weights (Day 15, animal M5) of 23.6 g. The “Body weight (Mean ± SD)” value (Day 15) was 22.07 ± 0.91 g and the “PI (BW), inhibition of body weight vs vehicle” value (Day 15) was 1.25%.
